Experimental data taken from patent US20120316071A1 (published 2012).
Changes are numbered by the printed parent chain. Numbers in names are those of the source.

T1: rHuman Erythropoietin R/Fc Chimera, CF (R&D Systems Cat#963-ER) (human, UniProt P19235 25-250)
T1 construct: Bought recombinant Fc chimera; also called EPO R; EPO R/Fc; Fc part of the bought chimera not given
T1 sequence (looked up): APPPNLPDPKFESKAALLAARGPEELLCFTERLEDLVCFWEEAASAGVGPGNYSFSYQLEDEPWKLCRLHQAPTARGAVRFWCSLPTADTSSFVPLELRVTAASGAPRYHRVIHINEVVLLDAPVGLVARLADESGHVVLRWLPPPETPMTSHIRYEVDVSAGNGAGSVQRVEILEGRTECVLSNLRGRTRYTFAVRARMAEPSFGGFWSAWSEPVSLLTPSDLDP

T2: rHuman Erythropoietin R/Fc Chimera, CF (R&D Systems Cat#963-ER) (human, UniProt P19235 25-250)
T2 construct: Bought reagent; also called EPO R; EPO R/Fc; Fc part of the bought chimera not given
T2 sequence (looked up): T1 sequence (looked up)

B1: Fab VH5-51_IGHD5-18*01>3_IGHJ4*01 & V3-4_IGLJ1*01 (Fab, V domains shown)
VH: EVQLVQSGAEVKKPGESLKISCKGSGYSFTSYWIGWVRQMPGKGLEWMGIIYPGDSDTRYSPSFQGQVTISADKSISTAYLQWSSLKASDTAMYYCARRGYSYGYDYFDYWGQGTLVTVSS
VL: QTVVTQEPSFSVSPGGTVTLTCGLSSGSVSTSYYPSWYQQTPGQAPRTLIYSTNTRSSGVPDRFSGSILGNKAALTITGAQADDESDYYCVLYMGSGISYVFGTGTKVTVL
notes: Germline Fab made in E. coli: VH in Plasmid A (CH1, His6 and Flag tags), lambda VL in Plasmid E (lambda CL)
B2: Fab VH1-46_IGHD3-10*01_IGHJ4*01 & L12_IGKJ1*01 (Fab, V domains shown)
VH: QVQLVQSGAEVKKPGASVKVSCKASGYTFTSYYMHWVRQAPGQGLEWMGIINPSGGSTSYAQKFQGRVTMTRDTSTSTVYMELSSLRSEDTAVYYCAREYYYGSGSYYNDYFDYWGQGTLVTVSS
VL: not shown
notes: Germline Fab made in E. coli: VH in Plasmid A (CH1, His6 and Flag tags), kappa VL in Plasmid C (kappa CL)
B3: Fab VH6-1_IGHD3-3*01_IGHJ4*01 & V4-3_IGLJ4*01 (Fab, V domains shown)
VH: QVQLQQSGPGLVKPSQTLSLTCAISGDSVSSNSAAWNWIRQSPSRGLEWLGRTYYRSKWYNDYAVSVKSRITINPDTSKNQFSLQLNSVTPEDTAVYYCAREYYDFWSGYYTDYFDYWGQGTLVTVSS
VL: QPVLTQPTSLSASPGASARLTCTLRSGINLGSYRIFWYQQKPESPPRYLLSYYSDSSKHQGSGVPSRFSGSKDASSNAGILVISGLQSEDEADYYCMIWHSSASFVFGGGTQLIIL
notes: as for B1
B4: Fab VH1-46_IGHD6-6*01_IGHJ1*01 S102A/S103P/S104F/H111F G55A & L6_IGKJ1*01 (Fab, V domains shown)
VH: QVQLVQSGAEVKKPGASVKVSCKASGYTFTSYYMHWVRQAPGQGLEWMGIINPSAGSTSYAQKFQGRVTMTRDTSTSTVYMELSSLRSEDTAVYYCAREEYAPFSAEYFQFWGQGTLVTVSS
VL: not shown
notes: Fab (CH1 with His6/Flag tags from Plasmid A, kappa CL from Plasmid C); also called APFF G55A
B5: Fab VH1-46_IGHD6-6*01_IGHJ1*01 S102A/S103P/S104F/H111F S57A & L6_IGKJ1*01 (Fab, V domains shown)
VH: B4 VH with A55G, S57A
VL: not shown
notes: Fab (CH1 with His6/Flag tags from Plasmid A, kappa CL from Plasmid C); also called APFF S57A
B6: Fab VH1-46_IGHD6-6*01_IGHJ1*01 S102A/S103P/S104F/H111F P53A & L6_IGKJ1*01 (Fab, V domains shown)
VH: B4 VH with P53A, A55G
VL: not shown
notes: Fab (CH1 with His6/Flag tags from Plasmid A, kappa CL from Plasmid C); also called APFF P53A
B7: Fab VH1-46_IGHD6-6*01_IGHJ1*01 S102A/S103P/S104F/H111F G56A & L6_IGKJ1*01 (Fab, V domains shown)
VH: B4 VH with A55G, G56A
VL: not shown
notes: Fab (CH1 with His6/Flag tags from Plasmid A, kappa CL from Plasmid C); also called APFF G56A
B8: Fab VH1-46_IGHD6-6*01_IGHJ1*01 S102A/S103P/S104F/H111F N52A & L6_IGKJ1*01 (Fab, V domains shown)
VH: B4 VH with N52A, A55G
VL: not shown
notes: Fab (CH1 with His6/Flag tags from Plasmid A, kappa CL from Plasmid C); also called APFF N52A
B9: Fab VH1-46_IGHD6-6*01_IGHJ1*01 S102A/S103P/S104F/H111F I50A & L6_IGKJ1*01 (Fab, V domains shown)
VH: B4 VH with I50A, A55G
VL: not shown
notes: Fab (CH1 with His6/Flag tags from Plasmid A, kappa CL from Plasmid C); also called APFF I50A
B10: Fab VH1-46_IGHD6-6*01_IGHJ1*01 S102A/S103P/S104F/H111F I51A & L6_IGKJ1*01 (Fab, V domains shown)
VH: B4 VH with I51A, A55G
VL: not shown
notes: Fab (CH1 with His6/Flag tags from Plasmid A, kappa CL from Plasmid C); also called APFF I51A
B11: Fab VH3-23_IGHD2-21*01>3_IGHJ6*01 H100E/S108P/Y113G/Y111H & V2-13_IGLJ2*01 (Fab, V domains shown)
VH: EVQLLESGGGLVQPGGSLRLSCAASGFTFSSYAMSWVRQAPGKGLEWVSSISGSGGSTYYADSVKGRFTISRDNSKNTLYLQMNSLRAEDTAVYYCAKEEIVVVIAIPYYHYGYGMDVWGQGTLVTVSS
VL: SSELTQDPAVSVALGQTVRITCQGDSLRSYYASWYQQKPGQAPVLVIYGKNNRPSGIPDRFSGSSSGNTASLTITGAQAEDEADYYCNSRDSSGNHLVVFGGGTKLTVL
notes: Fab made in E. coli: VH joined to CH1 (with His and Flag tags, plasmid A) and VL to lambda CL (plasmid E); also called EPG Y111H
B12: Fab VH3-23_IGHD2-21*01>3_IGHJ6*01 H100E/S108P/Y113G Y114H & V2-13_IGLJ2*01 (Fab, V domains shown)
VH: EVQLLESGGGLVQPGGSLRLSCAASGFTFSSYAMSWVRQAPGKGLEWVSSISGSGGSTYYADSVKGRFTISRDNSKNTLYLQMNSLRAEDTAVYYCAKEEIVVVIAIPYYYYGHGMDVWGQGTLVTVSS
VL: B11 VL
notes: Tested as Fab made in E. coli (VH-CH1 with His and Flag tags; lambda CL); also called EPG Y114H

How the values were obtained:
[1] = biological target: T3, Recombinant Human DLL4 (R&D Systems Cat#1506-D4/CF) (human, UniProt Q9NR61 27-529); assay: surface plasmon resonance, Fab against recombinant human DLL4; standard deviation in parentheses
T3 construct: Bought recombinant protein; also called rHuman DLL4; delta-like protein 4

[2] = biological target: T4, rHuman CD44/Fc Chimera, CF (R&D Systems Cat#3660-CD) (human, UniProt P16070 21-220); assay: ECL multispot (MSD) assay, antigen spotted on plate, 10 nM Fab;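 note: bound Fab detected with a TAG-labelled detection antibody (1 h, 20 °C), electrochemiluminescence read and compared with each well's blank, signal/blank of 4 or above scored as hit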
T4 construct: Bought recombinant Fc chimera; Fc part of the bought chimera not given

[3] = biological target: T5, Recombinant Human DLL4 (R&D Systems Cat#1506-D4/CF) (human, UniProt Q9NR61 27-524); assay: as above
T5 construct: Bought recombinant protein; also called delta-like protein 4; rHuman DLL4

[4] = biological target: T6, rHuman HGF R/c-MET/Fc Chimera, CF (R&D Systems Cat#358-MT/CF) (human, UniProt P08581 25-932); assay: as above
T6 construct: Bought recombinant Fc chimera; also called HGF R/Fc; hepatocyte growth factor receptor; Fc part of the bought chimera not given
T6 sequence (P08581 25-932, change not shown): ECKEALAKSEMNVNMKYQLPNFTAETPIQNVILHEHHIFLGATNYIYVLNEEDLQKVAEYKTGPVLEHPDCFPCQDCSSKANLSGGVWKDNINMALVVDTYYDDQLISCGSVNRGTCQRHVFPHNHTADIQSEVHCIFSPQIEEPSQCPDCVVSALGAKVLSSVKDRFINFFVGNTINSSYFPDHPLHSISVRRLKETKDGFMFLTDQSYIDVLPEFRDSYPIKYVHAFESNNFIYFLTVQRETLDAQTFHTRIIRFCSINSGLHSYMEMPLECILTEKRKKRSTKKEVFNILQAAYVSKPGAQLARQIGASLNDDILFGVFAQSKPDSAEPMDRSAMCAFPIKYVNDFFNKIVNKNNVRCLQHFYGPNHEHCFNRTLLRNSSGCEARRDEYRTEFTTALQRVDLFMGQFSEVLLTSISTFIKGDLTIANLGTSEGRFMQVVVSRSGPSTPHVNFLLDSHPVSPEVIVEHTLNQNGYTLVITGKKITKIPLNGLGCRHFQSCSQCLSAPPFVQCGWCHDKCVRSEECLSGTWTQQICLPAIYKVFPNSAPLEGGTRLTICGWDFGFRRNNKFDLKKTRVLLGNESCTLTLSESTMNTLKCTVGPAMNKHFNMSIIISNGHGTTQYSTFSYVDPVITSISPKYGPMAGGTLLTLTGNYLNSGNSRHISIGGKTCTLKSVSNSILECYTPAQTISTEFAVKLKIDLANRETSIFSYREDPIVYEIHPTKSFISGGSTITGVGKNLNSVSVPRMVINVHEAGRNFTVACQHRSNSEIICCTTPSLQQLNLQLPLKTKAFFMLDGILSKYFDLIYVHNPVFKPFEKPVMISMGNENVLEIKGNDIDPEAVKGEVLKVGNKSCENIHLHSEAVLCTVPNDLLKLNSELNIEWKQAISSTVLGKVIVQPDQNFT

[5] = biological target: T7, rHuman Notch-1/Fc Chimera, CF (R&D Systems Cat#3647-TK) (human, UniProt P46531 19-526); assay: as above
T7 construct: Bought recombinant Fc chimera; Fc part of the bought chimera not given

[6] = biological target: T1, rHuman Erythropoietin R/Fc Chimera, CF …; assay: as above
[7] = biological target: T8, rHuman ErbB2/Fc Chimera, CF (R&D Systems Cat#1129-ER) (human, UniProt P04626 23-652); assay: as above
T8 construct: Bought recombinant Fc chimera; also called human epidermal growth factor 2 receptor; Fc part of the bought chimera not given

[8] = biological target: T9, rHuman EGF R/Fc Chimera, CF (R&D Systems Cat#344-ER) (human, UniProt P00533 25-645); assay: as above
T9 construct: Bought recombinant Fc chimera; also called epidermal growth factor receptor; Fc part of the bought chimera not given

[9] = biological target: T10, rHuman IGF-1 sR, CF (R&D Systems Cat#391-GR) (human, UniProt P08069 31-932); assay: as above
T10 construct: Bought soluble receptor; also called insulin-like growth factor-1 soluble receptor

[10] = biological target: T11, rHuman P-Cadherin/Fc Chimera, CF (R&D Systems Cat#861-PC) (human, UniProt P22223 108-654); assay: as above
T11 construct: Bought recombinant Fc chimera; Fc part of the bought chimera not given

[11] = biological target: T12, rHuman CD44/Fc Chimera, CF (R&D Systems Cat#3660-CD) (human, UniProt P16070 21-220); assay: ECL (MSD) multispot binding assay, antigen spotted on plate, 20 nM Fab;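 note: purified Fab incubated 1 h at 20 °C on antigen-spotted plate, bound Fab revealed with TAG detection antibody, ECL read, antigen signal divided by same-well blank, ratio ≥4 counted as hit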
T12 construct: Bought recombinant protein; Fc part of the bought chimera not given

[12] = biological target: T13, rHuman Notch-1/Fc Chimera, CF (R&D Systems Cat#3647-TK) (human, UniProt P46531 19-526); assay: as above
T13 construct: Bought recombinant protein; Fc part of the bought chimera not given

[13] = biological target: T14, rHuman P-Cadherin/Fc Chimera, CF (R&D Systems Cat#861-PC) (human, UniProt P22223 108-654); assay: as above
T14 construct: Bought recombinant protein; Fc part of the bought chimera not given

[14] = biological target: T15, rHuman IGF-1 sR, (IGF-1 sR), CF (R&D Systems Cat#391-GR) (human, UniProt P08069 31-932); assay: as above
T15 construct: Bought recombinant soluble receptor; also called insulin-like growth factor-1 soluble receptor

[15] = biological target: T16, Recombinant Human DLL4 (R&D Systems Cat#1506-D4/CF) (human, UniProt Q9NR61 27-524); assay: as above
T16 construct: Bought recombinant protein; also called delta-like protein 4; rHuman DLL4

[16] = biological target: T17, rHuman ErbB2/Fc Chimera, CF (R&D Systems Cat#1129-ER) (human, UniProt P04626 23-652); assay: as above
T17 construct: Bought reagent; also called human epidermal growth factor 2 receptor; Fc part of the bought chimera not given

[17] = biological target: T18, Recombinant Human DLL4 (R&D Systems Cat#1506-D4/CF) (human, UniProt Q9NR61 27-524); assay: as above; remark: listed apart in the source
T18 construct: Bought recombinant protein; also called delta-like protein 4; rHuman DLL4

[18] = biological target: T2, rHuman Erythropoietin R/Fc Chimera, CF …; assay: as above
[19] = biological target: T19, rHuman P-Cadherin/Fc Chimera, CF (R&D Systems Cat#861-PC) (human, UniProt P22223 108-654); assay: as above
T19 construct: Bought reagent; Fc part of the bought chimera not given

[20] = biological target: T20, rHuman CD44/Fc Chimera, CF (R&D Systems Cat#3660-CD) (human, UniProt P16070 21-220); assay: as above
T20 construct: Bought reagent; Fc part of the bought chimera not given

[21] = biological target: T21, rHuman IGF-1 sR, CF (R&D Systems Cat#391-GR) (human, UniProt P08069 31-932); assay: as above
T21 construct: Bought soluble receptor; also called insulin-like growth factor-1 soluble receptor

Binder	ECL signal [2]	ECL signal [3]	ECL signal [4]	ECL signal [5]	ECL signal [6]	ECL signal [7]	ECL signal [8]	ECL signal [9]	ECL signal [10]	other results
B1										Kd [1]: 4.8 µM
B2										Kd [1]: 0.5 µM; koff [1]: 0.29 s⁻¹; kon [1]: 500000 M⁻¹ s⁻¹
B3										Kd [1]: 38 µM
B4	365	14500	221	381	305	474	217	392	426	
B5	439	112000	388	365	477	304	302	417	232	
B6	378	151000	337	393	427	203	439	374	390	
B7	330	189000	313	331	466	279	355	422	214	
B8	362	169000	369	383	468	378	340	362	353	
B9	326	2670	301	297	252	369	402	247	313	
B10	391	159000	440	312	380	344	373	383	144	
B11										ECL signal/blank ratio [11]: 1.3; ECL signal/blank ratio [12]: 1.5; ECL signal/blank ratio [13]: 7.7; ECL signal/blank ratio [14]: 1.2; ECL signal/blank ratio [15]: 1.6
B12										ECL multispot value [16]: 12.5; ECL multispot value [17]: 2.3; ECL multispot value [18]: 120; ECL multispot value [19]: 27; ECL multispot value [20]: 1.8; ECL multispot value [21]: 1.4
